Measured values taken from the RNAGym collection of RNA variant scans (doi:10.1073/pnas.2313332121).
Variants at the floor of the assay were thinned out.

B1: TPR 5TU (parent)
chain: GGAUCUUCUCGAUCUAACAAAAAAGACAAAUCUGCCACAAAGCUUGAGAGCAUCUUCGGAUGCAGAGGCGGCAGCCUUCGGUGGCGCGAUAGCGCCAACGUUCUCAACUAUGACACGCAAAACGCGUGCUCCGUUGAAUGGAGUUUAUCAUG

Variants of: B1
Test: polymerase ribozyme fitness, log enrichment relative to wild type (log ratio); higher = more active; in vitro selection for triplet polymerase activity
In short: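 Fitness is a logarithmic measure of how a genotype enriched relative to the wild type, with replicate averages weighted by inverse variance. The logarithm uses base 2, and enrichment came from Illumina sequencing of input and output libraries. Those libraries were PCR-built, transcribed mutants of each subunit of a heterodimeric triplet polymerase ribozyme, passed through one triplicate in vitro selection round that included frozen incubation at −7 °C, gel excision of extended constructs and streptavidin-bead capture. Genotypes were kept only if they had ≥10 input reads and ≥1 read per output.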

| Variant | polymerase ribozyme fitness (log ratio) |
| --- | --- |
| G50A A66G C85A A106G G140C | ≤ -4.2 |
| C51A G65A G81U C96G A106U G136U | ≤ -4.2 |
| C51U G70C C93G | ≤ -4.2 |
| C51U G94A C96U G126C | -1.72 |
| A52C G84U C125U | -2.64 |
| C51U G58U A91U C96U G100C A138C | ≤ -4.2 |
| C51A G84A | -1.26 |
| C51A G84C | -2.99 |
| A52C G83U U145A | -1.8 |
| C51U A52U G94U | -2.8 |
| A52C A91C | ≤ -4.2 |
| A52C C87A | ≤ -4.2 |
| C51U A60G G86A | -1.75 |
| A52C U56C G84U | -4.01 |
| G50A A73G A150G | ≤ -4.2 |
| C51U A150G | -1.14 |
| A49U G84A G136U | -3.29 |
| G50C G94U A121U G128U | ≤ -4.2 |
| A49U G58U U78A C96G C103U U135A | ≤ -4.2 |
| A49U G50U U53G A106U A122G | ≤ -4.2 |
| A52C G58U C75A C93A | ≤ -4.2 |
| C51U U55A C96A | -1.8 |
| C51U G80A G81A A150U | -1.5 |
| C51U A60G A66C U82C G94A U109A G136A A138C | ≤ -4.2 |

| Variant | polymerase ribozyme fitness (log ratio) |
| --- | --- |
| A52C U55A A60C C76U G83A C85U C129G A150G | ≤ -4.2 |
| G50A G92A U101G G117C | -3.96 |
| G50C G74A G92U | ≤ -4.2 |
| A49U C75A A91G | -4.15 |
| G50A G94A C116G | -1.53 |
| C51G A73G G94U C95U C118A A142U G152A | ≤ -4.2 |
| G50A C118A A119U G143A | -2.71 |
| G50A G68A C95A G140C | ≤ -4.2 |
| G50A U144A | -1.6 |
| A49U A52G | -1.71 |
| G50A U56A C57A C114G G133A | -3.53 |
| A49G U61A G71A U90C G94A A119G | ≤ -4.2 |
| G50A C116U | -1.34 |
| A49G C75A G136U A138C | ≤ -4.2 |
| G50A C99G | -3.05 |
| C51U U56A A91G | -3.44 |
| A49G C51G U78C C96G G136A | ≤ -4.2 |
| A49U C75U U102G | -2.65 |
| C51G G88A A91G A115U U144G U151C | ≤ -4.2 |
| C51G A60G A73G C123G | -3.71 |
| G50U U130A | -2.51 |
| A49G A115U | -2.35 |
| A49U C75U G80A C96U A97C U145A U146G U148G | ≤ -4.2 |
| G50A G86C C99U U104G C116G | ≤ -4.2 |

| Variant | polymerase ribozyme fitness (log ratio) |
| --- | --- |
| A52G A66C G67C G141C | ≤ -4.2 |
| A49G G50C U77A G92A C103G G117U | ≤ -4.2 |
| G50C C85A U144G | ≤ -4.2 |
| G50A A52C U55G G141C | ≤ -4.2 |
| A52C G88A A113U A121C | ≤ -4.2 |
| G50C C51U C54G C87U | ≤ -4.2 |
| G50U C132U | -0.763 |
| G50U A91G C103G | ≤ -4.2 |
| G50C U56A G62C C72U C95U | ≤ -4.2 |
| C51U A142C | -0.909 |
| A52C U102A | -1.68 |
| G50A U53A G58C C79U A121G U134A U139G | ≤ -4.2 |
| G50C G86A U102A G143U | ≤ -4.2 |
| C51A G92U U109C | ≤ -4.2 |
| G50U G140U | -3.88 |
| G50U A97G | -0.0233 |
| G50C G83A C87U G141U | ≤ -4.2 |
| C51U C69A C96U G141C | -3.18 |
| G50A C54G C116U | -2.17 |
| G50A C75U C76U U77A C96A A110G | ≤ -4.2 |
| G50U G58A G84U C105U G133A G141C | ≤ -4.2 |
| G50C C57A A64U U78G | ≤ -4.2 |
| G50C C93G C99G G126U | ≤ -4.2 |
| C51U U53A C93A | -4.05 |

| Variant | polymerase ribozyme fitness (log ratio) |
| --- | --- |
| A49U U55A C96A | -1.06 |
| C51G U90G | ≤ -4.2 |
| A52G C57G C76U G92U U148A | -4.19 |
| C51A A98U C125G | -0.926 |
| G50C A52G G62A G74U G86C C116U | ≤ -4.2 |
| G50A C51U U55G G84A G128A C131G U135C | ≤ -4.2 |
| C51A C76A G86A | ≤ -4.2 |
| C51A A64G C87A G128U G140C | ≤ -4.2 |
| A52C U53A C85U A107U A119C C125U | ≤ -4.2 |
| C51U U56G C75U U134C | -2.81 |
| C51U C57G G58C C69A A98U C105G C116U A150U | ≤ -4.2 |
| A49U G92U | -0.559 |
| C51U G70A A91C A97C U144C | ≤ -4.2 |
| A52C A107C A122C A138G | ≤ -4.2 |
| A52C C63U C93A A107U C125U U146A | ≤ -4.2 |
| C51U A60U | -0.791 |
| G50C A52G U53A G81C U82G G88U C105G A150G | ≤ -4.2 |
| C51U A110G | -3.47 |
| A49G C87A G126A | ≤ -4.2 |
| G50U G84C C85G A106G C116U G152A | ≤ -4.2 |
| A49U A52U A89G A98G | -3.98 |
| G50C G83C U135A | ≤ -4.2 |
| C51G G71A A122G | ≤ -4.2 |
| A52C U78A C96A U144G | ≤ -4.2 |

| Variant | polymerase ribozyme fitness (log ratio) |
| --- | --- |
| G50U U144A | -0.478 |
| G50U A122G U135A | -0.743 |
| A49G C93A | -3.6 |
| C51G G92C | -2.71 |
| G50C G59C | -3.38 |
| A52C A119U G141C | -2.95 |
| G50A G141A | -0.962 |
| G50A C96U C125G | -2.14 |
| A49U U148C | -3.02 |
| C51U G58C A73G G81A C116U | -0.931 |
| G50A G65A U102C | -4.1 |
| G50C G74A U77G C93G U135A U139A | ≤ -4.2 |
| G50A C75G U90G U111C C123G U139A U144C | ≤ -4.2 |
| A52C C96U | -1.77 |
| G50U C85G | -3.51 |
| C51A C99U | -1.63 |
| G50C U53A | -3.26 |
| A49G G71A G126A | ≤ -4.2 |
| G50U C57U A110G G140A | ≤ -4.2 |
| A49G U104C C149G | ≤ -4.2 |
| C51U C96A A121C U134A | -3.19 |
| A49U G50A A60C | -2.62 |
| A49G G92A | -3.9 |
| A49G G92C | -2.39 |

| Variant | polymerase ribozyme fitness (log ratio) |
| --- | --- |
| A49U A73G | -2.09 |
| G50U G81A C93G | -3.96 |
| C51U C87A A91U U144G | ≤ -4.2 |
| G50C C96U | -2.14 |
| G50C C96G | -2.66 |
| G50U G83A U146C A147C | -2.91 |
| G50U C85A A97U G140A | ≤ -4.2 |
| G50C U53A C57G G70A G100C A120G | ≤ -4.2 |
| A49U G50C C57U A89C C96A | -3.23 |
| C51U G67A G83U G94A A98C C99G U109C A120U U145G | ≤ -4.2 |
| A49U A52C A89G C95U | -2.69 |
| G50U A64G | ≤ -4.2 |
| G50C G86U | -3.89 |
| G50C G86C | ≤ -4.2 |
| G50U G74A C93U A106C U148C | ≤ -4.2 |
| G50C C57G C118G | -3.68 |
| A49G A91U G124U G141C U148G | ≤ -4.2 |
| G50U G92C | -0.0562 |
| A49G U135C U145C | -2.6 |
| A49U U82G C105U C116U U145A | -2.58 |
| C51A G58C U111A | ≤ -4.2 |
| G50A A52C C57G C93U | -3.12 |
| A49U A52G U61G C93U | -3.49 |
| A52C U55A C131G | ≤ -4.2 |

| Variant | polymerase ribozyme fitness (log ratio) |
| --- | --- |
| G50A U78A G84A G100C A137G | ≤ -4.2 |
| A52C C87A G88U U135C | ≤ -4.2 |
| A52C C69A C105U | -3.13 |
| G50A G92C | -3.26 |
| A49G G50C | -2.28 |
| A52C C95A C132G G141A A150G | ≤ -4.2 |
| G50C G126A | -2.28 |
| G50A G74C C87A U144C U151C | ≤ -4.2 |
| A49G C87G | -4.02 |
| C51U U55G A98U A115G | -3.09 |
| G50C C57U U82G A121G G143C | ≤ -4.2 |
| C51U U56A G65U G81C G136C A138G G141C A142G | ≤ -4.2 |
| G50U G58U | 0.771 |
| A52C A73U C85A C103A | ≤ -4.2 |
| G50A C116U A121U C132U U144G | -1.82 |
| C51U G94U C114A G140A | ≤ -4.2 |
| A52C A115G | -2.09 |
| A52C G59U | -0.875 |
| A52C U55A | -1.69 |
| A52G C54U G58C G86A A89U | -3.29 |
| A49U G94A A119C | -1.28 |
| G50A G74U G83A C85G G126U C149A | ≤ -4.2 |
| G50U C54U G81C C85A G117A | -0.79 |
